Reference: article PMC7952905

Biological target: human ACE2 extracellular domain (19-615) (human) (UniProt Q9BYF1)
Assay: SPR

Chain of human ACE2 extracellular domain (19-615) (human) (Q9BYF1 19-615): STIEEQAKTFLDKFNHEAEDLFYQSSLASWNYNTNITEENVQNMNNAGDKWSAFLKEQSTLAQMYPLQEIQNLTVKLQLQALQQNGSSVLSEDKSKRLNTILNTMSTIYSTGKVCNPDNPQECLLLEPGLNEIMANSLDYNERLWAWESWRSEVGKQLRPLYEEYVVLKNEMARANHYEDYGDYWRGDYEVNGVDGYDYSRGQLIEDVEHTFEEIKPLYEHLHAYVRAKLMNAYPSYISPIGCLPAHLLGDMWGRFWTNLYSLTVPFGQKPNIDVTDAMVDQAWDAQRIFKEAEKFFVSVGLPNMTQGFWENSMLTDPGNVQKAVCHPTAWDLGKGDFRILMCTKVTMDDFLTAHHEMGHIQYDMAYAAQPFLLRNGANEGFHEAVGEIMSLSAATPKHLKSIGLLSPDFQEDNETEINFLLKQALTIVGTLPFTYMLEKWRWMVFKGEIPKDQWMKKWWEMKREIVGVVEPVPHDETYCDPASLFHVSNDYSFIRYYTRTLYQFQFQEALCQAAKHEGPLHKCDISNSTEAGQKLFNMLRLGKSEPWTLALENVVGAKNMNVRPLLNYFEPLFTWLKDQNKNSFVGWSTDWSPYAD

With “PCoV_GX RBD (331-524) (domain or fragment)” as the substance, how does the Kd read?
The Kd was 2.7 nM.
